Measured values as given in patent US20070027086A1.

Legend:
[1] = target: human MC5-receptor (human) (UniProt P33032); assay: competition with [^125I]NDP-MSH on COS cells expressing human MC5 receptor; Ki by Cheng-Prusoff
[2] = target: human MC4-receptor (human) (UniProt P32245); assay: ratio of Ki values, competition with [^125I]NDP-MSH on COS-1 cells expressing human MC receptors
[3] = target: human MC5-receptor (human) (UniProt P33032); assay: as above
[4] = target: human MC4-receptor (human) (UniProt P32245); assay: competition with [^125I]NDP-MSH on COS cells expressing human MC4 receptor; Ki by Cheng-Prusoff

Chain of human MC4-receptor (human) (P32245 whole entry): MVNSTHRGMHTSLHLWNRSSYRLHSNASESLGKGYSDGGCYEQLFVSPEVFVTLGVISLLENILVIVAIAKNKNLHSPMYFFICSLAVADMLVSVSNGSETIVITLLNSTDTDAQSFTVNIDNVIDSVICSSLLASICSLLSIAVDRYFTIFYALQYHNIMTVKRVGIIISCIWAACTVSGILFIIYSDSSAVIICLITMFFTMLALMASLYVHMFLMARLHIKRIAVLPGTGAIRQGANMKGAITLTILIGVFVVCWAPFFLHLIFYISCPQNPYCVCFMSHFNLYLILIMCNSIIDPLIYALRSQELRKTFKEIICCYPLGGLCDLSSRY
Chain of human MC5-receptor (human) (P33032 whole entry): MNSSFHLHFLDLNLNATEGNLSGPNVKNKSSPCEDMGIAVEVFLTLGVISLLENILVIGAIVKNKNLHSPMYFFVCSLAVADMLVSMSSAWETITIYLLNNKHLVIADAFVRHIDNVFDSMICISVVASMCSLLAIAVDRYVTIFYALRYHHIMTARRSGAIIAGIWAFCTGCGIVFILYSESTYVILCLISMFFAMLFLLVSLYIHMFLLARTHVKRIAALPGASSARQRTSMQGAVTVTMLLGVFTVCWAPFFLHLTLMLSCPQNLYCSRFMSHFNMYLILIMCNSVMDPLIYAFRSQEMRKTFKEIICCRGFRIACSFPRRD

Ki [1]: > 50 µM
fold lower affinity than for the MC1-receptor [2]: > 65000 fold
fold lower affinity than for the MC1-receptor [3]: > 65000 fold
Ki [4]: > 50 µM
Substance: MS05 (Ser-Ser-Ile-Ile-Ser-His-Phe-Arg-Trp-Gly-Lys-Pro-Val-NH2) (peptide)
